Test results as given in the supplement of paper PMC10567573.
± gives the standard deviation.

Test: protein stability index of a GFP-peptide fusion (GPS, HEK-293T) (PSI 1-6); higher = more stable
[1] = treatment: DMSO, c terminus: a fixed tail appended
[2] = treatment: MLN4924 1 uM, 8 h, c terminus: a fixed tail appended
[3] = treatment: DMSO, c terminus: native
[4] = treatment: MLN4924 1 uM, 8 h, c terminus: native
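Further: 24-mer peptide tiles fused after GFP, lentivirally expressed, FACS-sorted into six equal bins by GFP/DsRed ratio, decoded by Illumina sequencing, PSI is the read-weighted mean bin number.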

Row | Sequence | protein stability index [1] | protein stability index [2] | protein stability index [3] | protein stability index [4]
1 | PAPASSTPQEPWPGPTAPSPTSRP [PDLIM7] | 5.07 ± 0.093 | 5.13 ± 0.22 | – | –
2 | LNVNLNSVVLRRARGGAVSARYVL [DUSP5] | 2.19 ± 0.54 | 2.26 ± 0.51 | – | –
3 | EIITQSPGRSSVASPRRLSNVSSS [MAP2] | 3.43 ± 0.18 | 3.66 ± 0.2 | – | –
4 | IIVNLLWFIHLVFVVLAFLTGVLC [TMEM192] | 2.78 ± 0.58 | 2.3 ± 0.48 | – | –
5 | VAQGPFDSFVVQYEDTNGQPQALL [TNXB] | 3.43 ± 0.44 | 3.16 ± 0.46 | – | –
6 | QFLKELLLKPHSYGRFIRWLNKEK [SPDEF] | 2.28 ± 0.43 | 2.21 ± 0.25 | – | –
7 | DVVALLINHGAEVTCKDKKGYTPL [ANKRD44] | 2.33 ± 0.55 | 2.27 ± 0.48 | – | –
8 | RQSRRQSVSRFFADSGADPKGEPG [FBF1] | 5.04 ± 0.12 | 5.11 ± 0.17 | – | –
9 | SYPNPNEDKCPGNYTNPLKVQTVI [TMEM192] | 3.17 ± 0.36 | 3.29 ± 0.22 | – | –
10 | YVDIQGLTASTMEILLDFVYTETV [KLHL12] | 3.564 ± 0.008 | 3.1 ± 1.2 | – | –
11 | ELAGVDTELLAERFYYQALSVAPQ [SMG5] | 2.68 ± 0.25 | 2.88 ± 0.16 | – | –
12 | GKSILLFGGAAAVAILAVAIGVAL [BCL2L13] | 2.98 ± 0.057 | 2.87 ± 0.3 | – | –
13 | PASGASSIKPEASQMPPPAGGTSD [SCNN1D] | 5.43 ± 0.14 | 5.45 ± 0.19 | – | –
14 | QKAPMTTVRGLHCMCTVGERLYVI [KLHL13] | 3.21 ± 0.61 | 2.75 ± 0.52 | – | –
15 | KPYECNECGKAFSQSSYLSQHRRI [ZNF232] | 2.32 ± 0.073 | 2.44 ± 0.32 | – | –
16 | ARHNYNDLCPPIGRRAATALLWLS [GNAS] | 2.15 ± 0.43 | 2.27 ± 0.35 | – | –
17 | YNSFHKLRDRAERIASRAIDNAAD [SNX8] | 3.98 ± 0.43 | 4.14 ± 0.38 | – | –
18 | SWRVGVVRVRQDSGAEGHSHSCYH [TRIM35] | 3.02 ± 0.41 | 3.2 ± 0.32 | – | –
19 | RLGELFNPYYDPLQWKSSHFERRD [CHGB] | 2.45 ± 0.28 | 2.64 ± 0.24 | – | –
20 | NRVVVSGLPPSGSWQDLKDHMREA [SRSF1] | 3.93 ± 0.094 | 4.03 ± 0.12 | – | –
21 | QSEESDQGKYECVATNSAGTRYSA [PTPRD] | 5.23 ± 0.33 | 5.23 ± 0.34 | – | –
22 | DGEGAGPGEQGGGKLVLSSLPKRL [ESRRA] | 4.94 ± 0.14 | 4.68 ± 0.15 | – | –
23 | KRKEEECSTTDHPYKKPYMETSPS [TBX5] | 5.09 ± 0.22 | 5.02 ± 0.18 | – | –

Row | Sequence | protein stability index [1] | protein stability index [2] | protein stability index [3] | protein stability index [4]
24 | SARYVLPDEAARARLLQEGGGGVA [DUSP5] | 4.33 ± 0.19 | 4.13 ± 0.17 | – | –
25 | AFPKMALQAKQDGKKDVSHSSPVD [LCOR] | 5.26 ± 0.14 | 5.16 ± 0.16 | – | –
26 | EDQVPALEAPEDIGSTSESKDWEE [MIA2] | 5.8 ± 0.12 | 5.71 ± 0.27 | – | –
27 | AHRTEFYRNLTHNPPSDFSFQNMN [STK38L] | 2.84 ± 0.34 | 2.88 ± 0.24 | – | –
28 | LAHLAPLFDNPKLDKELRAMLREK [INTS3] | 2.6 ± 0.41 | 2.65 ± 0.5 | – | –
29 | LVQKDQHSFELDEKALASILLQDH [ATL3] | 3.43 ± 0.35 | 3.38 ± 0.28 | – | –
30 | VLHIVASLIILHLSGATKKGTEKQ [NETO1] | 2.78 ± 0.57 | 2.9 ± 0.65 | – | –
31 | SSVCVQGRCIHAGCDRIIGSKKKF [ADAMTS4] | 3.57 ± 0.26 | 3.22 ± 0.38 | – | –
32 | VTLIVDNTRFVVDPSIFTAQPNTM [BTBD10] | 2.84 ± 0.51 | 3.2 ± 0.74 | – | –
33 | GPAGPYLLSKKGALQSRAAQRHRG [PLEKHN1] | 4.16 ± 0.48 | 3.98 ± 0.21 | – | –
34 | LEASVQDDAGTSGGPSSPPSDPPA [C2CD2L] | 5.53 ± 0.31 | 5.66 ± 0.12 | – | –
35 | ALNEQACRNGSSIQIAFEEVPQLP [C2CD2L] | 3.83 ± 0.38 | 4.02 ± 0.12 | – | –
36 | RHWCMKHDELLAEHIKSLLIKNNS [INTS3] | 2.29 ± 0.12 | 2.38 ± 0.33 | – | –
37 | MTMTTMPESLNSPVSGKAVFMEFG [DLX1] | 2.42 ± 0.16 | 2.57 ± 0.21 | – | –
38 | DASSSTSTSSSFPSSFPSSSSSSS [MAGEA10] | 5.07 ± 0.37 | 5.23 ± 0.085 | – | –
39 | GPFDLMSRRVIAANNRILAERIAK [IMPA1] | 2.54 ± 0.39 | 3.46 ± 0.59 | – | –
40 | EPRQRRLLLLDLLALYTPVGAAGS [ANKRD9] | 2.65 ± 0.57 | 2.44 ± 0.88 | – | –
41 | KAELGALPHDFIDSLEKTDDDKYK [NLN] | 5.31 ± 0.2 | 5.2 ± 0.32 | – | –
42 | VFAPVYFPEELHRKAALEQDLAFW [HMOX1] | 2.14 ± 0.43 | 2.4 ± 0.38 | – | –
43 | TLVDEGDLYNWEVAIFGPPNTYYE [CDC34] | 2.33 ± 0.38 | 2.8 ± 0.26 | – | –
44 | DMVSNIELPTRIHEEVYFEPSSSK [MIA2] | 3.68 ± 0.2 | 3.88 ± 0.39 | – | –
45 | DYRKQLQYPNPLPVLSGAELEKAH [VPS39] | 4.5 ± 0.15 | 4.41 ± 0.12 | – | –
46 | LFFTALMITVPIGLYFTTKSYIFE [VMA21] | 2.73 ± 0.46 | 2.58 ± 0.055 | – | –

Row | Sequence | protein stability index [1] | protein stability index [2] | protein stability index [3] | protein stability index [4]
47 | VGNYRLKEYEKALKYVRGLLQTEP [FIS1] | 2.19 ± 0.22 | 2.5 ± 0.32 | – | –
48 | LFRWPDLQHAVELKPLCGCHSFAA [SMAD6] | 2.27 ± 0.26 | 2.13 ± 0.49 | – | –
49 | SVRRSESWARPRPDEERPLRRPRP [RASAL3] | 4.92 ± 0.096 | 4.68 ± 0.29 | – | –
50 | LQAFGETLLLELEQDSGVQVEGLT [ADAMTS4] | 3.65 ± 0.63 | 3.79 ± 0.27 | – | –
51 | YKVRHVHWKTWLAIKCSPSLHVDD [RIPK4] | 2.16 ± 0.34 | 1.98 ± 0.44 | – | –
52 | INHGAEVTCKDKKGYTPLHAAASN [ANKRD44] | 4.23 ± 0.16 | 4.2 ± 0.24 | – | –
53 | RRILDELTLCKSDLESQVESLREE [KRT34] | 4.82 ± 0.14 | 4.75 ± 0.18 | – | –
54 | PLPGKAFLRQLPFRGDDGIFDDNF [SNX3] | 3.47 ± 0.23 | 3.41 ± 0.47 | – | –
55 | LELKFVSSLRRQFEFSVDSFQIVL [TENT5D] | 3.41 ± 0.5 | 2.91 ± 0.23 | – | –
56 | IFLNGNRERPLNVFCDMETDGGGW [TNXB] | 1.91 ± 0.48 | 2.67 ± 0.54 | – | –
57 | AERLGVTFFEVSPLCNFNITESFT [RAB40B] | 2.13 ± 0.15 | 2.22 ± 0.16 | – | –
58 | SRFRKAYKPEQPLVRLRGGAYIGE [LOXL2] | 3.16 ± 0.26 | 2.98 ± 0.39 | – | –
59 | AAEGEGSPPAVAAVAGPPAAAEVG [ANKRD17] | 5.63 ± 0.23 | 5.21 ± 0.43 | – | –
60 | GTPMGTFAPLWEVFRVSSDKLALC [FCHO1] | 2.23 ± 0.63 | 2.17 ± 0.41 | – | –
61 | LEQFLSILPKELQGWVREHCPESG [ZSCAN9] | 2.5 ± 0.15 | 2.71 ± 0.29 | – | –
62 | VGSLPVIVVGRLKVALEPQLWELG [LPCAT4] | 2.74 ± 0.036 | 2.88 ± 0.6 | – | –
63 | FLAENSAFPKMALQAKQDGKKDVS [LCOR] | 4.23 ± 0.29 | 4.36 ± 0.36 | – | –
64 | RYFPAGNVVNEGFFEENVLPPKK [GLIPR2] | – | – | 4.72 ± 0.066 | 4.59 ± 0.38
65 | AKPRLAERMTTREKKVLEAGMGKV [HDAC6] | 4.38 ± 0.17 | 3.98 ± 0.2 | – | –
66 | KTLQPTKQPNCSSLFKLKPLSNKT [PLD5] | 3.08 ± 0.17 | 3.09 ± 0.35 | – | –
67 | TITEEIRDGKVISSREHVQSRPL [KRT36] | – | – | 5.23 ± 0.29 | 5.26 ± 0.21
68 | RAASSQRAEEEDDDIKQLAAWAT [CHMP4C] | – | – | 5.34 ± 0.4 | 5.2 ± 0.2
69 | KTEITDLRRTMQELEIELQSQLSM [KRT15] | 3.79 ± 0.39 | 3.5 ± 0.24 | – | –

Row | Sequence | protein stability index [1] | protein stability index [2] | protein stability index [3] | protein stability index [4]
70 | QLLLHNTVIFYGADSEQADIARML [ZMYND11] | 2.28 ± 0.089 | 2.3 ± 0.13 | – | –
71 | NDVRQSANYTCVAMSTLGVIEAIA [PTPRD] | 2.3 ± 0.34 | 2.19 ± 0.3 | – | –
72 | FKDYIQERSDPVEQGKPVIPAAVL [ETS2] | 4.08 ± 0.2 | 3.97 ± 0.27 | – | –
73 | LGFAYAKEDKIMLDDRKNEEDGGA [MIA2] | 4.96 ± 0.13 | 5.18 ± 0.2 | – | –
74 | AMAYHHDSRRIFVGQDNGAVMEFH [WDFY1] | 3.08 ± 0.15 | 2.96 ± 0.32 | – | –
75 | GEREPFAETDEHTGANTKKPEDTA [FAM9B] | 5.46 ± 0.22 | 5.54 ± 0.52 | – | –
76 | SRSVEDDKEGHLVCRIGDWLQERY [CLK3] | 3.41 ± 0.23 | 3.45 ± 0.2 | – | –
77 | SLPETFGDFWRMIWEQRSATVVMM [PTPRD] | 2.69 ± 0.7 | 2.43 ± 0.83 | – | –
78 | RYPELDTPKLDCFLSGMEAAPRTL [TBX6] | 3.5 ± 0.27 | 3.58 ± 0.2 | – | –
79 | SFQIVLDPMLDFYSDKNAKLTKES [TENT5D] | 2.91 ± 0.43 | 3.09 ± 0.37 | – | –
80 | PPSSGNGPAPPPLPPALVPAGGLA [WAS] | 4.66 ± 0.47 | 4.67 ± 0.29 | – | –
81 | EVVNMAVIVPKEEGVISVSEDRTV [WDFY2] | 4.04 ± 0.42 | 4.22 ± 0.34 | – | –
82 | NWGNGKRPNLETYYERVLKRKTFN [GDAP1] | 2.57 ± 0.12 | 2.79 ± 0.52 | – | –
83 | SKVVVPPLPGKAFLRQLPFRGDDG [SNX3] | 3.45 ± 0.17 | 3.56 ± 0.21 | – | –
84 | AREGGGCGRSEVRPVAPRRPRDAV [SMAD6] | 4.43 ± 0.26 | 4.36 ± 0.21 | – | –
85 | DFVMSLTFPFKILGDSGLGPWQLN [P2RY14] | 3 ± 0.56 | 3.08 ± 0.74 | – | –
86 | VYSLEPRLCGGKGGFGSMLRALGA [SDE2] | 2.24 ± 0.45 | 2.1 ± 0.081 | – | –
87 | VFLVDICLLTYGMTSSSAYYYTKV [PKD2L1] | 2.98 ± 0.2 | 2.84 ± 0.58 | – | –
88 | TMGLAGRARVKEKFSPEAFTEQLY [ALG2] | 2.94 ± 0.26 | 2.96 ± 0.13 | – | –
89 | HKLDLNTREWTQLKPNNLSCDLPE [KLHDC10] | 4.4 ± 0.12 | 4.41 ± 0.3 | – | –
